This note sets out measurements from patent publication US11260115B1, “Peptides and combination of peptides for use in immunotherapy against CLL and other cancers” (immatics biotechnologies GmbH, priority 2015, dated 2022).

This assay has as its target HLA-A*02:01 (Homo sapiens, UniProt P04439, D140Y/D185E/D98H/E176V/E277Q/G131W/G231S/I119V/I121R/I166T/I218V/L300P/L318F/N151K/N90K/P208A/P217A/Q86G/Q94H/R138H/R169H/T345S). Briefly: MHC binding assay (UV-ligand exchange, β2m ELISA, peptide exchange yield). As to conditions: binding to HLA-A*02:01. An excerpt:
Candidate peptides for T cell based therapies according to the present invention were further tested for their MHC binding capacity (affinity). The individual peptide-MHC complexes were produced by UV-ligand exchange, where a UV-sensitive peptide is cleaved upon UV-irradiation, and exchanged with the peptide of interest as analyzed. Only peptide candidates that can effectively bind and stabilize the peptide-receptive MHC molecules prevent dissociation of the MHC complexes. To determine the yield of the exchange reaction, an ELISA was performed based on the detection of the light chain (β2m) of stabilized MHC complexes. The assay was performed as generally described in Rodenko et al. (Rodenko et al., 2006).
96 well MAXISorp plates (NUNC) were coated over night with 2 ug/ml streptavidin in PBS at room temperature, washed 4× and blocked for 1 h at 37° C. in 2% BSA containing blocking buffer. Refolded HLA-A*02:01/MLA-001 monomers served as standards, covering the range of 15-500 ng/ml. Peptide-MHC monomers of the UV-exchange reaction were diluted 100 fold in blocking buffer. Samples were incubated for 1 h at 37° C., washed four times, incubated with 2 ug/ml HRP conjugated anti-β2m for 1 h at 37° C., washed again and detected with TMB solution that is stopped with […]. Absorption was measured at 450 nm. Candidate peptides that show a high exchange yield (preferably higher than 50%, most preferred higher than 75%) are generally preferred for a generation and production of antibodies or fragments thereof, and/or T cell receptors or fragments thereof, as they show sufficient avidity to the MHC molecules and prevent dissociation of the MHC complexes.
Table 11: MHC class I binding scores. Binding of HLA-class I restricted peptides to HLA-A*02:01 was ranged by peptide exchange yield: ≥10%=+; ≥20%=++; ≥50=+++; ≥75%=++++
In general terms: In an ELISA, binding on a coated surface is turned into a signal by an enzyme label.
For “1 (AIPPSFASIFL; listed as Homo sapiens) [compound 1]”, the “Peptide Exchange (MHC class I binding score, peptide exchange yield)” value (shortened to “Peptide Exchange”) is listed as ““+++” (>50 = +++)”.

On to “3 (VIAELPPKV; listed as Homo sapiens) [compound 3]”, for which the “Peptide Exchange” value was ““++” (>20% = ++)”.

For the substance “4 (VIAELPPKVSV; listed as Homo sapiens) [compound 4]”, the “Peptide Exchange” value is ““+++” (>50 = +++)”.

For the substance “5 (ALIFKIASA; listed as Homo sapiens) [compound 5]”, the “Peptide Exchange” value is ““+++” (>50 = +++)”.

For “6 (ALDTLEDDMTI; listed as Homo sapiens) [compound 6]”, the “Peptide Exchange” value is on record as ““+++” (>50 = +++)”.

As for “7 (ALLERTGYTL; listed as Homo sapiens) [compound 7]”, the “Peptide Exchange” value was ““+++” (>50 = +++)”.

“8 (ALAASALPALV; listed as Homo sapiens) [compound 8]”: the “Peptide Exchange” value is ““+++” (>50 = +++)”.

On to “9 (ALCDTLITV; listed as Homo sapiens) [compound 9]”, for which the “Peptide Exchange” value is reported as ““+++” (>50 = +++)”.

In the case of “10 (FVYGESVEL; listed as Homo sapiens) [compound 10]”, the “Peptide Exchange” value was ““+++” (>50 = +++)”.

For “11 (ALFTFSPLTV; listed as Homo sapiens) [compound 11]”, the “Peptide Exchange” value is listed as ““+++” (>50 = +++)”.

As to “12 (ALGEDEITL; listed as Homo sapiens) [compound 12]”, the “Peptide Exchange” value was ““+++” (>50 = +++)”.

Take “13 (VVDGMPPGV; listed as Homo sapiens) [compound 13]”: the “Peptide Exchange” value is listed as ““+++” (>50 = +++)”.

As to “14 (ALLRLLPGL; listed as Homo sapiens) [compound 14]”, the “Peptide Exchange” value was ““+++” (>50 = +++)”.

As for “15 (ALPEVSVEA; listed as Homo sapiens) [compound 15]”, the “Peptide Exchange” value is on record as ““+++” (>50 = +++)”.

Consider “16 (ALPGGAAVAAV; listed as Homo sapiens) [compound 16]”, for which the “Peptide Exchange” value was ““++++” (>75% = ++++)”.

In the case of “18 (LLGEFSIKM; listed as Homo sapiens) [compound 18]”, the “Peptide Exchange” value is recorded as ““+++” (>50 = +++)”.

As for “19 (QVMEKLAAV; listed as Homo sapiens) [compound 19]”, the “Peptide Exchange” value is ““+++” (>50 = +++)”.

Take “20 (ALVDPGPDFVV; listed as Homo sapiens) [compound 20]”: the “Peptide Exchange” value is recorded as ““+++” (>50 = +++)”.

For the substance “21 (ALWAGLLTL; listed as Homo sapiens) [compound 21]”, the “Peptide Exchange” value was ““+++” (>50 = +++)”.

As for “22 (ALWDPVIEL; listed as Homo sapiens) [compound 22]”, the “Peptide Exchange” value is given as ““+++” (>50 = +++)”.

With “23 (ALYLTEVFL; listed as Homo sapiens) [compound 23]”, the “Peptide Exchange” value is given as ““++++” (>75% = ++++)”.

As for “24 (AMAGDVVYA; listed as Homo sapiens) [compound 24]”, the “Peptide Exchange” value is ““+++” (>50 = +++)”.

In the case of “25 (ATYSGLESQSV; listed as Homo sapiens) [compound 25]”, the “Peptide Exchange” value is recorded as ““++” (>20% = ++)”.

As for “27 (AVLGLVWLL; listed as Homo sapiens) [compound 27]”, the “Peptide Exchange” value is reported as ““+++” (>50 = +++)”.

For “28 (AVLHLLLSV; listed as Homo sapiens) [compound 28]”, the “Peptide Exchange” value is given as ““++” (>20% = ++)”.

Consider “29 (AVLQAVTAV; listed as Homo sapiens) [compound 29]”, for which the “Peptide Exchange” value is listed as ““+++” (>50 = +++)”.

With “30 (ELLEGSEIYL; listed as Homo sapiens) [compound 30]”, the “Peptide Exchange” value is listed as ““+++” (>50 = +++)”.

Consider “31 (ELMHGVAGV; listed as Homo sapiens) [compound 31]”, for which the “Peptide Exchange” value is ““+++” (>50 = +++)”.

As for “34 (YLPYIFPNI; listed as Homo sapiens) [compound 34]”, the “Peptide Exchange” value was ““+++” (>50 = +++)”.

For “35 (FILPSSLYL; listed as Homo sapiens) [compound 35]”, the “Peptide Exchange” value was ““+++” (>50 = +++)”.

For “36 (FILTHVDQL; listed as Homo sapiens) [compound 36]”, the “Peptide Exchange” value is listed as ““++++” (>75% = ++++)”.

On to “37 (FIMEGGAMVL; listed as Homo sapiens) [compound 37]”, for which the “Peptide Exchange” value is given as ““++++” (>75% = ++++)”.

“38 (FIMEGGAMV; listed as Homo sapiens) [compound 38]”: the “Peptide Exchange” value was ““+++” (>50 = +++)”.

As to “39 (FLDALLTDV; listed as Homo sapiens) [compound 39]”, the “Peptide Exchange” value is ““+++” (>50 = +++)”.

As for “40 (FLDEDDMSL; listed as Homo sapiens) [compound 40]”, the “Peptide Exchange” value was ““++” (>20% = ++)”.

As to “41 (FLDPSLDPLL; listed as Homo sapiens) [compound 41]”, the “Peptide Exchange” value was ““+++” (>50 = +++)”.

Turning to “42 (FLEEGGVVTV; listed as Homo sapiens) [compound 42]”, the “Peptide Exchange” value is ““+++” (>50 = +++)”.

As to “43 (FLLGPEALSFA; listed as Homo sapiens) [compound 43]”, the “Peptide Exchange” value is ““++++” (>75% = ++++)”.

For the substance “44 (FLLSINDFL; listed as Homo sapiens) [compound 44]”, the “Peptide Exchange” value was ““+++” (>50 = +++)”.

For the substance “45 (FLPELPADLEA; listed as Homo sapiens) [compound 45]”, the “Peptide Exchange” value is reported as ““+++” (>50 = +++)”.

For the substance “46 (YIIDSAQAV; listed as Homo sapiens) [compound 46]”, the “Peptide Exchange” value was ““+++” (>50 = +++)”.

For the substance “47 (FLSDQPEPYL; listed as Homo sapiens) [compound 47]”, the “Peptide Exchange” value is reported as ““++” (>20% = ++)”.

For “48 (FLSPQQPPLL; listed as Homo sapiens) [compound 48]”, the “Peptide Exchange” value is ““+++” (>50 = +++)”.

As for “49 (FLTDLFAQL; listed as Homo sapiens) [compound 49]”, the “Peptide Exchange” value was ““++++” (>75% = ++++)”.

For “50 (FLFEPVVKAFL; listed as Homo sapiens) [compound 50]”, the “Peptide Exchange” value is listed as ““+++” (>50 = +++)”.

For the substance “51 (FLVEAPHDWDL; listed as Homo sapiens) [compound 51]”, the “Peptide Exchange” value was ““++++” (>75% = ++++)”.

As to “52 (FLVETGFLHV; listed as Homo sapiens) [compound 52]”, the “Peptide Exchange” value is ““++++” (>75% = ++++)”.

For the substance “53 (FLWQHVELVL; listed as Homo sapiens) [compound 53]”, the “Peptide Exchange” value is ““+++” (>50 = +++)”.

As to “55 (FMEPTLLML; listed as Homo sapiens) [compound 55]”, the “Peptide Exchange” value is recorded as ““+++” (>50 = +++)”.

For “56 (FVFEAPYTL; listed as Homo sapiens) [compound 56]”, the “Peptide Exchange” value was ““+++” (>50 = +++)”.

Turning to “58 (YIQQGIFSV; listed as Homo sapiens) [compound 58]”, the “Peptide Exchange” value is ““+++” (>50 = +++)”.

Take “59 (FVFGDENGTVSL; listed as Homo sapiens) [compound 59]”: the “Peptide Exchange” value was ““+++” (>50 = +++)”.

In the case of “60 (FVLDHEDGLNL; listed as Homo sapiens) [compound 60]”, the “Peptide Exchange” value was ““+++” (>50 = +++)”.

Consider “61 (FVYFIVREV; listed as Homo sapiens) [compound 61]”, for which the “Peptide Exchange” value is given as ““+++” (>50 = +++)”.

“62 (GIIDGSPRL; listed as Homo sapiens) [compound 62]”: the “Peptide Exchange” value is listed as ““+++” (>50 = +++)”.

Turning to “63 (SLAHVAGCEL; listed as Homo sapiens) [compound 63]”, the “Peptide Exchange” value is listed as ““+++” (>50 = +++)”.
